In general, Kd refers to the free concentration of one partner at which half of the binding sites on the other are occupied at equilibrium, for simple one-to-one binding.

The values that follow come from PMC5839545.

The target in experiment [1] is mCherry-(s)-CENP-N (human) (UniProt Q96H22). The experiment can be described thus: dual color fluorescence cross-correlation spectroscopy (DC-FCCS); EGFP and mCherry fusion proteins co-expressed in living interphase HEp-2 or U2OS cells; spots in the nucleoplasm free of kinetochores, focal volume bleached before; 37°C; 488 and 561 nm; corrected values are the measured ones times about two.

Experiment [2] deals with CENP-I-(s)-mCherry (human) (UniProt Q92674). The experiment is described as above.
The target in experiment [3] is mCherry-(s)-CENP-I (human) (UniProt Q92674). The experiment is described as above.
The target of experiment [4] is Spc24/Spc25 137-197+129-224 (Homo sapiens) (UniProt Q8NBT2). The conditions noted are these: cited from earlier work.
Experiment [5] addresses mCherry-(s)-CENP-K (human) (UniProt Q9BS16). The experiment can be described thus: dual color fluorescence cross-correlation spectroscopy (DC-FCCS); EGFP and mCherry fusion proteins co-expressed in living interphase HEp-2 or U2OS cells; spots in the nucleoplasm free of kinetochores, focal volume bleached before; 37°C; 488 and 561 nm; corrected values are the measured ones times about two.

Chain of mCherry-(s)-CENP-K (human) (Q9BS16 whole entry, the tested form may be a part): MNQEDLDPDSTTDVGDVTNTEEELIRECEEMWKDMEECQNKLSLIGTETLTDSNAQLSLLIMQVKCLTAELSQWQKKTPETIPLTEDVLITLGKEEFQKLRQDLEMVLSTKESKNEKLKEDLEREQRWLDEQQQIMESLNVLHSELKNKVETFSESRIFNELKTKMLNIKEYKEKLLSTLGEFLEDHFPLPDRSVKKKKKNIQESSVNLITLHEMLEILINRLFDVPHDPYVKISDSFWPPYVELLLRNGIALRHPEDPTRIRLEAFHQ
Chain of EGFP-(l)-CENP-M (Q9NSP4 whole entry): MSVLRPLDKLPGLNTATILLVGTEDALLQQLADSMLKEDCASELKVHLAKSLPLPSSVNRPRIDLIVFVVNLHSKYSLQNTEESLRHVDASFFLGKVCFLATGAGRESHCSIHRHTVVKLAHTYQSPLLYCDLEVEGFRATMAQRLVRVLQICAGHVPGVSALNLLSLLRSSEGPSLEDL
Chain of mCherry-(s)-CENP-I (human) (Q92674 whole entry): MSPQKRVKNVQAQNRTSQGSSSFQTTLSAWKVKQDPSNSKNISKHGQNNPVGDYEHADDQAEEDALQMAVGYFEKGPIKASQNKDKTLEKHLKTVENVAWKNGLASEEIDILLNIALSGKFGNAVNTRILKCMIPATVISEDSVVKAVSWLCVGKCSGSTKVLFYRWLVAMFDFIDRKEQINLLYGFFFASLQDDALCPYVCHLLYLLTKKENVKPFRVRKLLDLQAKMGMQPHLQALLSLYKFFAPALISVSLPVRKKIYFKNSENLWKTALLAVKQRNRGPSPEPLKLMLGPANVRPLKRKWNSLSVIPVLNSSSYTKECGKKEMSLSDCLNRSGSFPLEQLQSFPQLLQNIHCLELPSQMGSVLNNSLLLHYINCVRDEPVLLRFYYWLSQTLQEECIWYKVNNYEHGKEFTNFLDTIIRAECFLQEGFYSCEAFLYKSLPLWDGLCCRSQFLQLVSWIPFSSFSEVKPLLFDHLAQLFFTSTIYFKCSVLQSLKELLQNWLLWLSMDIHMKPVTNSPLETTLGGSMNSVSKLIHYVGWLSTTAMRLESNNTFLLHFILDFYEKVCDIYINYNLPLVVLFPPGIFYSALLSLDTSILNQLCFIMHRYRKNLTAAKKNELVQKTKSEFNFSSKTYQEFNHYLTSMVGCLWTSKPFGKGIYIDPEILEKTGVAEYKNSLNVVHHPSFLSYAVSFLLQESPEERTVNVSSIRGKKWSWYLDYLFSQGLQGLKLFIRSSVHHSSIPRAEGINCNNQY
Chain of mCherry-(s)-CENP-N (human) (Q96H22 whole entry, the tested form may be a part): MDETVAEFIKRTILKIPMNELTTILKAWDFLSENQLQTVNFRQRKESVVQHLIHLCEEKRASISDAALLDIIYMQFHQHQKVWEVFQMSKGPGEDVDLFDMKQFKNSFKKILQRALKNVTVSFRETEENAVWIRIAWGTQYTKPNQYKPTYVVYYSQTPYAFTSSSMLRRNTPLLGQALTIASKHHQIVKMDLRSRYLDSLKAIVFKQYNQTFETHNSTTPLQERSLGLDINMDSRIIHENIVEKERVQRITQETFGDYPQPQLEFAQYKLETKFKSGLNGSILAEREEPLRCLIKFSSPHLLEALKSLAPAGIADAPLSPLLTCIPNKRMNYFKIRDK
Chain of Spc24/Spc25 137-197+129-224 (Homo sapiens) (Q8NBT2 whole entry, chain 1 of 2, the tested form may be a part): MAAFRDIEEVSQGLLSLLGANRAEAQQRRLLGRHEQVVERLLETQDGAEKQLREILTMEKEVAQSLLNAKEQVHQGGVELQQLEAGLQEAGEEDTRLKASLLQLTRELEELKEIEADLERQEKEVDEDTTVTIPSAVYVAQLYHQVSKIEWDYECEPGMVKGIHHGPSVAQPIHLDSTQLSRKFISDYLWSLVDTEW
Chain of Spc24/Spc25 137-197+129-224 (Homo sapiens) (Q9HBM1 whole entry, chain 2 of 2, further chain, the tested form may be a part): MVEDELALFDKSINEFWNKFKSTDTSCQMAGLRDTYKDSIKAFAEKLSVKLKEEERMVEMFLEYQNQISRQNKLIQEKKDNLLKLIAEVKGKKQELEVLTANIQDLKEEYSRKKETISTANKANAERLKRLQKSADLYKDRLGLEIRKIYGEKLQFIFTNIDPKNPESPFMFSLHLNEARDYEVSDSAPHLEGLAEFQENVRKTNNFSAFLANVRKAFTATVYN
Chain of EGFP-(l)-CENP-L (Q8N0S6 whole entry): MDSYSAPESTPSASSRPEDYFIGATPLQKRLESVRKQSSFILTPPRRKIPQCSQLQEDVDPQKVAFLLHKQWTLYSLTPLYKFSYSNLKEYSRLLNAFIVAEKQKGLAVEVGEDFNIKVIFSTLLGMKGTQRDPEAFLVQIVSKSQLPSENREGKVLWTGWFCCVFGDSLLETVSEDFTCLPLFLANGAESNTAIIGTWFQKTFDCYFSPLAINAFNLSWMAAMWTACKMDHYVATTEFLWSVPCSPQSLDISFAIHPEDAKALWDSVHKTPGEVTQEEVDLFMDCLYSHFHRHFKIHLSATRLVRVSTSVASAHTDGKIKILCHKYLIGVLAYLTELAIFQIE
Chain of CENP-I-(s)-mCherry (human) (Q92674 whole entry): as the sequence (Q92674 whole entry) above
Chain of CENP-T 76-106 (Q96BT3 76-106): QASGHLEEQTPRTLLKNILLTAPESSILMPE

Consider “EGFP-(l)-CENP-L (from UniProt Q8N0S6 1-344) (natural protein; other documents disagree on this pair)”, for which the cross-correlation, measured (%) in experiment [1] was determined as 23%.
In experiment [1], “CENP-K-(s)-EGFP (from UniProt Q9BS16 1-269) (natural protein)” registered a cross-correlation, measured (%) of 26%.
In the case of “EGFP-(s)-CENP-H (from UniProt Q9H3R5 1-247) (natural protein)”, the cross-correlation, measured (%) in experiment [2] was found to be 22%.
“EGFP-(s)-CENP-K (from UniProt Q9BS16 1-269) (natural protein)” showed a cross-correlation, measured (%) in experiment [3] of 20%.
Turning to CENP-T 76-106 (from UniProt Q96BT3), in experiment [4], the Kd was 645 nM.
“EGFP-(l)-CENP-M (from UniProt Q9NSP4 1-180) (natural protein)” returned a cross-correlation, measured (%) in experiment [3] of 24%. In experiment [5], this substance registered a co-migration in one cell (%) of 49%; a cross-correlation, corrected (%) of 56 to 92%; a cross-correlation, measured (%) of 37%.
